Here are results for 6 molecules from patent publication US20050069542A1 (Human Genome Sciences, published 2005).

This test has as its target T1, flag-tagged soluble TL3 (amino acids 105-251 of SEQ ID NO:234) (Homo sapiens (Human), UniProt O75888 105-250).
T1 construct: Heterologous flag-tagged control protein, immobilized in the ELISA; also called flagged tagged TL-3; not shown: Flag tag
T1 sequence: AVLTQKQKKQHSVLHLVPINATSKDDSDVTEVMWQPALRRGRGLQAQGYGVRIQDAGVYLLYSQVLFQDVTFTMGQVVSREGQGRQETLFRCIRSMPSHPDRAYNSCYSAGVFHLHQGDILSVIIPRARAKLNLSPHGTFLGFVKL
Put plainly: phage ELISA on immobilized flag-tagged soluble TL3. In outline: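 Phage displaying scFvs selected against flag-tagged GMAD were screened by ELISA against immobilized flag-tagged soluble TL3 (residues 105-251) as a heterologous flag-tagged counter-target, to check that binding is GMAD-specific.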

B1: GMCC127 (scFv)
scFv: QVQLVQSGGGVVRPGGSLRLSCAASGFTFDDYGMSWVRQAPGKGLEWVSGINWNGGSTGYADSVKGRFTISRDNAKNSLYLQMNSLRAEDTAVYYCARRRYALDYWGRGTLVTVSSGGGGSGGGGSGGGGSALSSELTQDPAVSVALGQAVRITCQGDSLRTNYASWYQQRPGQAPVLVIRGNNNRPSGIPDRFSGSNSGDTVSLTITGAQAEDEADYYCNSRDTSGYHYVFGTGTKLTVLG
For the molecule B1, the binding result is given as “no binding”.

B2: GMCC129 (scFv)
scFv: EVQLVETGGGLAQPGGSLRLSCEASGFTFNNYAMSWVRQAPGKGLEWVSGISISGYSTFYTDSVQGRFTISRDNSKNTLYLQMNSLGVDDTAVYYCAKRRGEGGDFDYWGRGTMVTVSSGGGGSGGGGSGGGGSALSSELTQDPAVSVALGQTVRITCQGDSLRGYYASWYQQKAGQAPVLVIYGKNNRPSGIPDRFSGSSSGNTASLTITGAQAEDEADYYCYSRDRSGNHLGMFGGGTKVTVLG
Consider B2, for which the binding result is on record as “no binding”.

B3: GMCC126 (scFv)
scFv: QVQLQESGPGLVKPSQTLSLSCAVSGFSVTSGHYWGWIRQSPGKGLEWIGNIYHTGSTRYNPSLESRVSMSVDTSKNQFSLRLTSVTAADTAIYYCARVGRGQHLVRGDFDYWGRGTLVTVSSGGGGSGGGGSGGGGSAQSVLTQPPSISVSPGQTASITCSGDELGHKYASWYQQKPGQSPVVVVYQDNKRPSGIPERFSGSSSGNTATLTISGTQAVDEADYFCQAWDSSAVVFGGGTKLTVLG
As to B3, the binding result is listed as “no binding”.

B4: GMCC138 (scFv)
scFv: EVQLVETGPGLVKPSQTLSLTCTVSGGSISSGGYYWSWIRQVPGKGLEWIGYNFYNGSTYFNPSLKSRATISIDTTKNQFSLKLSSVTAADTAVYYCARGNGYRYGRWFDPWGRGTLVTVSSGGGGSGGGGSGGGGSALSYELTQPPSVSVSPGQTARITCSGDALPKQYAYWYQQKPGQAPVLVISKDSERPSGIPERFSGSSSGTTVTLTISGVQAEDEADYYCQSADSSGTYWVFGGGTKVTVLG
Regarding B4, the binding result is given as “no binding”.

B5: GMCC131 (scFv)
scFv: QVQLQESGPGLVKPSETLSLTCSVSGGSIRSHYWSWMRQPPGKGLEWIGYVYYTGSTNYNPSLKSRVTMSVDTSKNQFSLNLSSVTAADTAIYYCARFPYSSGSNPLDYWGRGTLVTVSSGGGGSGGGGSGGGGSAQSVLTQPPSVSAAPGQRVTISCTGSSSNIGARYDVHWYQHLPGTAPKLLIYGDSNRPSGVPDRFSGSKSGTSASLAITGLQPEDEADYYCQSYDSSLSGVVFGGGTKVTVLG
Turning to B5, the binding result is on record as “no binding”.

B6: GMCC142 (scFv)
scFv: EVQLVQSGAEVKKPGASVTISCKASGYTFTAYYIYWVRQAPGQGLEWMGMSNPNGGYTVYPPNFLGRVTTTPDTSTNTIYMELRSLRSEDTAVYYCARGRGRAPSNAFDFWGRGTLVTVSSGGGGSGGGGSGGGGSALSSELTQDPAVSVALGQTVRITCQGDSLKFYYASWYQQKPGQAPVLVLHGKNNRPSGIPDRFSGSTSRDTASLTITGTQAEDEADYYCNSRDNSDNIVFGTGTKLTVLG
In the case of B6, the binding result is reported as “no binding”.
